Molecular target: LFA-1 (Homo sapiens, UniProt P20701)
Assay: BLI

LFA-1, sequence (P20701 26-1170, chain 1 of 2): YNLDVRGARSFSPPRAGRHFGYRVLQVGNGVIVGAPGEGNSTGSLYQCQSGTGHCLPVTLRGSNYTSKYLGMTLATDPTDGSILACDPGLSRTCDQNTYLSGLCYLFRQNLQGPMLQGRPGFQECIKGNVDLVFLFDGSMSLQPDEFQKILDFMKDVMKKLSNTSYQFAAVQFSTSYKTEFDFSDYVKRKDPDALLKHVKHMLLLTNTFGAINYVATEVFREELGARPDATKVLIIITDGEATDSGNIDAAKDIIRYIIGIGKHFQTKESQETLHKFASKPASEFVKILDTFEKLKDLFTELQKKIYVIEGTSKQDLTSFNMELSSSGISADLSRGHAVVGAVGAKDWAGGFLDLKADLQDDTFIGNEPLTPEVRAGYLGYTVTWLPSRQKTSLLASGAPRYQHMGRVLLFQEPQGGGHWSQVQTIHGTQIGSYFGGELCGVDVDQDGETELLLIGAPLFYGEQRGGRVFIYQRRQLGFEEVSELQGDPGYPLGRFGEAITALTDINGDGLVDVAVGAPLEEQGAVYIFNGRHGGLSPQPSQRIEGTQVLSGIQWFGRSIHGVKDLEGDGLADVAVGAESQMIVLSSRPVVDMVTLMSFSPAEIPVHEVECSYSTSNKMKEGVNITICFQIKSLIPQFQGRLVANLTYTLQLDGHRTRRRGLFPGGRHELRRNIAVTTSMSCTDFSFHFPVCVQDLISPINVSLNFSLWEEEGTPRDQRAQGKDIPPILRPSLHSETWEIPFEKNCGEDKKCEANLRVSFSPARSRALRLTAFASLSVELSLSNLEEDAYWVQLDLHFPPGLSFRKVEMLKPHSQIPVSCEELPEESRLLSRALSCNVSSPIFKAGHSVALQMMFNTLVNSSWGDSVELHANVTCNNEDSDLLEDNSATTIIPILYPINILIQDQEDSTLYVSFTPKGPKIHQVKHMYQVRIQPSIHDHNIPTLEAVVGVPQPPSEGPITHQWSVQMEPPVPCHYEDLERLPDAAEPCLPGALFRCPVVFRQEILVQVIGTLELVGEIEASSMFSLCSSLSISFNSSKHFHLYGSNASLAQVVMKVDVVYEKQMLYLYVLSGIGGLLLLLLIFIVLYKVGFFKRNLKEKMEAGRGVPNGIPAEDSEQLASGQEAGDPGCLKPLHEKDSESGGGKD
LFA-1, sequence (chain, as listed by the source, chain 2 of 2): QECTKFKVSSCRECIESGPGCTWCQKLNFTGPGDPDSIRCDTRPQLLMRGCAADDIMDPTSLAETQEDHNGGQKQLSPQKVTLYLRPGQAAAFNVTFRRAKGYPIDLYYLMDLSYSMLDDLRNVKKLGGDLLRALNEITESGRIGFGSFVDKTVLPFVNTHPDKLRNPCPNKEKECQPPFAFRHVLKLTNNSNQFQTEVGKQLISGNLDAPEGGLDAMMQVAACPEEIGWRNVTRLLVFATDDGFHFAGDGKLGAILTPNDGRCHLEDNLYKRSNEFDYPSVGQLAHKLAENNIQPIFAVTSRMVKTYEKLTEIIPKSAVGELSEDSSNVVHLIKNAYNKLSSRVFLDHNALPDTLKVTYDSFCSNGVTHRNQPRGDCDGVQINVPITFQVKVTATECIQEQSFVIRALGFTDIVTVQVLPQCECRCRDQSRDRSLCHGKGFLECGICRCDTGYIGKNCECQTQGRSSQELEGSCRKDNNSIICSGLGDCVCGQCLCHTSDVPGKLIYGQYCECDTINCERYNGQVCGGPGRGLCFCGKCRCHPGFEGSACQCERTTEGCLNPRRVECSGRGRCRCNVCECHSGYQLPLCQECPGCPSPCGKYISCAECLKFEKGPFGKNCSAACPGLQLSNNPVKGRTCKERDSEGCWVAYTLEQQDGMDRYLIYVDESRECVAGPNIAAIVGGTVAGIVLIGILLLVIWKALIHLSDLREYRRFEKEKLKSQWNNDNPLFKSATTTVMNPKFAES

B1: GBP-130 ectodomain (protein)
chain: MRLSKVSDIKSTGVSNYKNFNSKNSSKYSLMEVSKKNEKKNSLGAFHSKKILLIFGIIYVVLLNAYICGDKYEKAVDYGFRESRILAEGEDTCARKEKTTLRKSKQKTSTRTVATQTKKDEENKSVVTEEQKVESDSEKQKRTKKVVKKQINIGDTENQKEGKNVKKVIKKEKKKEESGKPEENKHANEASKKQEPKASKVSQKPSTSTRSNNEVKIRAASNQETLTSADPEGQIMREYAADPEYRKHLEIFYKILTNTDPNDEVERRNADNKEDLTSADPEGQIMREYASDPEYRKHLEIFYKILTNTDPNDDVERRNADNKEDLTSADPEGQIMREYAADPEYRKHLEVFHKILTNTDPNDEVERRNADNKEDLTSADPEGQIMREYAADPEYRKHLEVFHKILTNTDPNDEVERRNADNKELTSSDPEGQIMREYAADPEYRKHLEVFHKILTNTDPNDEVERRNADNKEDLTSADPEGQIMREYAADPEYRKHLEVFHKILTNTDPNDEVERRNADNKEDLTSADPEGQIMREYAADPEYRKHLEIFHKILTNTDPNDEVERRNADNKEDLTSADPEGQIMREYAADPEYRKHLEIFYKILTNTDPNDEVERRNADNKEELTSSDPEGQIMREYAADPEYRKHLEIFHKILTNTDPNDEVERRNADNKEDLTSADPEGQIMREYAADPEYRKHLEIFYKILTNTDPNDEVERRNADNKEDLTSADPEGQIMREYASDPEYRKHLEIFYKILTNTDPNDDVERRNADNKEDLTSADPEGQIMREYAADPEYRKHLEVFHKILTNTDPNDEVERQNADNNEA
Kd: 15 nM

Reference: paper PMC13218722 (2026)
